For assay [1], the target named is T1, recombinantly produced LILRB2 extracellular domain (ECD) protein (UniProt Q8N423 22-460, limits assumed).
T1 construct: extracellular domain; A LILRB2-His protein was used for panning; also called plate-coated LILRB2; LILRB2 ECD
Description: ELISA, plate-coated LILRB2, anti-human F(ab)2 HRP detection. As to the method: Antibody binding affinity to LILRB2 were measured by ELISA. Increasing concentrations of purified LILRB2 antibodies were incubated with plate-coated LILRB2. The bound antibody was detected by anti-human F(ab)2 HRP, and the signals were quantified as OD₄₅₀ values. EC₅₀ values (Table 5) were calculated using non-linear curve fitting function Sigmoidal dose-response (variable slope) in GraphPad Prism.
On the technique in general: In an ELISA, binding on a coated surface is turned into a signal by an enzyme label.

In assay [2] the target is T2, LILRB2 (UniProt Q8N423 22-460, limits assumed).
T2 construct: Panning used recombinantly expressed LILRB2-His; also called Leukocyte Immunoglobulin-like Receptor subfamily B member 2; LILRB2-His
T2 sequence (Q8N423 22-460 limits assumed): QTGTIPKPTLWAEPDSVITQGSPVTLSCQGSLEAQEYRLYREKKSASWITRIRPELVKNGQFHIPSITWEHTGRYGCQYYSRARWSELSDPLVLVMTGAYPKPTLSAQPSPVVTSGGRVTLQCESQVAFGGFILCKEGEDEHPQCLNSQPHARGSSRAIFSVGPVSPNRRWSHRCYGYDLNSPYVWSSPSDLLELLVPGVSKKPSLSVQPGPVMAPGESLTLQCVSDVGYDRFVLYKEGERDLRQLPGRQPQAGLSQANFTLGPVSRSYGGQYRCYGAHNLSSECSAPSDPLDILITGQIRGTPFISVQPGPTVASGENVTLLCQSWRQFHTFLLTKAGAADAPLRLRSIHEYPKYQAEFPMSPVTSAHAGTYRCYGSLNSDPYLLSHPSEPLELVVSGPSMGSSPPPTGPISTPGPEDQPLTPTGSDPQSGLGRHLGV
Nature of the assay: BLI, Octet Red96. The method, then: Kinetic binding parameters (KD, kₒₙ, and koff) were determined using Octet Red96 instrument (ForteBio; Fremont, CA).
(BLI is a label-free optical method that tracks binding on a fibre tip over time.)

The target in assay [3] is T3, LILRB2-chimeric reporter receptor on reporter cells (UniProt Q8N423 22-460). Nature of the assay: cell-based or functional assay.
T3 sequence (Q8N423 22-460, change not shown): as the sequence (Q8N423 22-460 limits assumed) above
Assay [4] concerns the target T2, LILRB2. Description: ELISA of phage display clone on LILRB2.
Assay [5] deals with T3, LILRB2-chimeric reporter receptor on …. Nature of the assay: cell-based or functional assay. This is another data set of the same source.
The target of assay [6] is T4, LILRB2 expressed on the surface of HEK293T cells (UniProt Q8N423 22-597, limits assumed).
T4 construct: whole, on cells; also called HEK293T cells that express LILRB2
T4 sequence (Q8N423 22-597 limits assumed): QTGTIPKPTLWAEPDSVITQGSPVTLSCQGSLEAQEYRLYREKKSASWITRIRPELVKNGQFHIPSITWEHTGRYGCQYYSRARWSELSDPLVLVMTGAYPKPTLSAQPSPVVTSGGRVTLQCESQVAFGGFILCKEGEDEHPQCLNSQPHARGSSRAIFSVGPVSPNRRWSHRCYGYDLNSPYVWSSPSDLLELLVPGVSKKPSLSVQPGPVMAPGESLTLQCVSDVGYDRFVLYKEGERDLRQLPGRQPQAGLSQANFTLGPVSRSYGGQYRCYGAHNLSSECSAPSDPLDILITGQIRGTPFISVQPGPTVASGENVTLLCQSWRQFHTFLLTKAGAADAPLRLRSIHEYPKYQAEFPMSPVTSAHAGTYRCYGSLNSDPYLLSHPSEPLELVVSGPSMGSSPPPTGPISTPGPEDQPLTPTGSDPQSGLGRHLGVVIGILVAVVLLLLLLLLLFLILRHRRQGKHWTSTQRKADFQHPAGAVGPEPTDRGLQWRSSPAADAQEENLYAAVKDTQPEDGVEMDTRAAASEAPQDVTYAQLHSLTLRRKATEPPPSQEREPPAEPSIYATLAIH
Nature of the assay: flow cytometry on HEK293T cells expressing LILRB2, MFI fold over control; sheet also prints 95%CI=0.19-0.31 µg/mL. In general terms: In flow cytometry, cells or beads pass a laser one at a time.

T1 sequence (Q8N423 22-460 limits assumed): as the sequence (Q8N423 22-460 limits assumed) above

B1: NeuB2-40 (antibody, V domains shown)
VH: QVQLVQSGAEVKKPGASVKVSCKASGYTFTNYGISWVRQAPGQGLEWMGWISGDAGDTKFAQKFQGRVTMTTDTSTTTTYMELRSLRSDDTAVYYCARDGEYIPMFRGFDNYYGLDVWGQGTTVTVSS
VL: QPVLTQPPSVSEAPRQRVTISCSGSSSNIGKNAVNWYQQFPGKAPKLLIYYDDLLPSGVSDRFSGSRSGTSASLAISGLQSEDEADYYCAAWDDRLKGYVFGTGTQLTVL
notes: also called Ab40; 40-HC/40-LC
On to B1, for which the EC50 in assay [1] came out at 66.4 pM. In the assay with LILRB2 [2], this molecule came in with a Kd of 19200 pM, a koff of 0.00471 s⁻¹ and a kon of 245000 M⁻¹ s⁻¹. Also, the “IC50 (M); GFP signal of LILRB2-chimeric reporter cells on plate-coated oAβ” value (shortened to “IC50 (M); GFP signal”) in assay [3] turned out to be 3.6e-09 M. In addition, the “OD450 in ELISA assay” value with LILRB2 [4] amounted to 0.276. Also, the “IC50 (M); blocking of PS-LILRB2 interaction” value (“IC50 (M); blocking” for short) in assay [5] came out at 3.54e-10 M.

B2: NeuB2-19 (antibody, V domains shown)
VH: QVQLVESGGGVVRPGGSLRLSCAASGFTFDDYGMSWVRQAPGKGLEWVSGINWNGGSTGYADSVKGRFTISRDNAKNSLYLQMNSLRAEDTALYYCAREGDGAFDIWGQGTLVTVSS
VL: QAVVTQPPSASGTPGQRVTISCSGSGSNIRSNGVTWYQQFPGTAPKLLIYDNNQRPSGVPGRFSGSKSGTSGSLAISGLQSEDEADYYCAAWDDNLNAWVFGAGTQLTVL
notes: Human antibody from a phage library; also called 19-HC/19-LC
Take B2: the “OD450 in ELISA assay” value with LILRB2 [4] came to 0.663.

B3: NeuB2-80 (antibody, V domains shown)
VH: QVQLVQSGAEVKKPGASVKVSCKASGYTFTSYGISWVRQAPGQGLEWMGWISAYNGNTNYAQKLQGRVTMTTDTSTSTAYMELRSLRSDDTAVYYCARDGGGGYFDYWGQGTLVTVSS
VL: QAVVTQPPSASGTPGQRITISCSGSSSNIGKNIVNWYQQVPGAAPKLLIYNNSQRPSGVPDRFSGSKSGTSASLAISGLQSEDEADYYCAAWDDSLRSWLFGGGTKVTVL
notes: Human antibody from a phage library; also called 80-HC/80-LC
As to B3, the “OD450 in ELISA assay” value with LILRB2 [4] turned out to be 0.64.

B4: NeuB2-128 (antibody, V domains shown)
VH: QVQLQQSGAEVKKPGSSVKVSCKASGGTFSSYAISWVRQAPGQGLEWMGGIIPIFGTANYTQKFQGRVTITADESTSTAYMELSSLRSEDTAVYYCARGPSGSPYGMDVWGQGTTVIVSS
VL: not shown
notes: Human antibody from a phage library; also called 128-HC/128-LC
On to B4, for which the “OD450 in ELISA assay” value with LILRB2 [4] stood at 0.446.

B5: NeuB2-8 (antibody, V domains shown)
VH: QLQLQESGPGLVKPSQTLSLTCAISGGNVSSKSAAWNWIRQSPSRGLEWLGRTYYRSKWYNDYAVSVKSRITINPDTSKNQFSLQLKSVTPEDTAVYYCARSLGEGWFPYFYGMDVWGQGTTVTVSS
VL: QSVLTQPASVSGSPGQSITISCTGTNRDVGGYDYVSWYQQHPGKAPKLMIYGVSNRPSGISNRFSGSKSGSTASLTISGLQVEDEAAYYCSSYTASRTVVFGGGTKVTVL
notes: Human antibody from a phage library; also called 8-HC/8-LC
For the molecule B5, in the assay with LILRB2 [4], the “OD450 in ELISA assay” value was found to be 0.548.

B6: NeuB2-13 (antibody, V domains shown)
VH: QVQLVQSGAEVKKPGASVKVSCKASGYTFTSYYMHWVRQAPGQGLEWMGIINPSGGSTSYAQKFQGRVTMTRDTSTSTVYMELSSLRSEDTAVYYCAREDWGPFDYWGQGTTVTVSS
VL: DIQMTQSPSSLSASVGDRVTITCRASQSISNFVNWYQQKPGEVPKLLIYGASSLQSGVPSRFSGSGSGTDFTLTISSLQPEDFATYYCQQGYSVPLTFGGGTKVEIK
notes: Human antibody from a phage library; also called 13-HC/13-LC
Turning to B6, the “OD450 in ELISA assay” value in the assay with LILRB2 [4] came to 0.552.

B7: NeuB2-29 (antibody, V domains shown)
VH: QVQLVETGGGVVQPGRSLRLSCAASGFTFSDYAMHWVRQAPGKGLEWVTLISYDGSQKYYADSVKGRFTISRDDSKNTVDLQMNSLKAEDTAVYYCAKFPSLNDNVGFDVWGQGTMVTVSS
VL: QSVLTQPPSVSGAPRERVTISCSGSTSNIENNAVNWYQQLPGKAPKLLIYYDDLVPSGVSDRFSGSKSGTSASLAISGLQSGDEAYYYCAVWDDSLNGPVFGGGTKVTVL
notes: also called Ab29; NewuB2-29
Regarding B7, the EC50 in assay [1] amounted to 137 pM. The same molecule yielded an EC50 in assay [6] of 0.24 µg/mL. Further, in the assay with LILRB2 [2], the dissociation constant Kd is 9000 pM, the koff is 0.00151 s⁻¹ and the on-rate (kon) came out at 168000 M⁻¹ s⁻¹. Besides, the “IC50 (M); GFP signal” value in assay [3] came out at 3.44e-10 M. In addition, the “OD450 in ELISA assay” value in the assay with LILRB2 [4] amounted to 0.819. The “IC50 (M); blocking” value in assay [5] is 1.42e-10 M.

B8: NeuB2-55 (antibody, V domains shown)
VH: EVQLVQSGAEVKKPGSSVKVSCKASGGTFSSYAISWVRQAPGQGLEWMGGIIPIFGTANYAQKFQGRVTITADESTSTAYMELSSLRSEDTAVYYCARGVDQVDYWGQGTLVTVSS
VL: QAVVTQPASVSGSPGQSITISCTGTSSDVGGYNYVSWYQQHPGKAPKLMIYDVSNRPSGVSNRFSGSKSGNTASLTISGLQAEDEADYYCSSYTSSSTPYVFGTGTKVTVL
notes: also called Ab55; 55-HC/55-LC
In the case of B8, the EC50 in assay [1] turned out to be 175 pM. In the assay with LILRB2 [2], this molecule registered a Kd of 56000 pM, a koff of 0.00723 s⁻¹ and an on-rate constant (kon) of 129000 M⁻¹ s⁻¹. Besides, the “IC50 (M); GFP signal” value in assay [3] was 1.89e-09 M. For the same molecule, the “OD450 in ELISA assay” value with LILRB2 [4] was 0.886. In addition, in assay [5], the “IC50 (M); blocking” value was 3.35e-10 M.

B9: NeuB2-110 (antibody, V domains shown)
VH: QVQLVESGGGLVKPGGSLRLSCGISGFTFSDYYMSWIRQAPGKGLEWVSFIGTSGSTIYYADSVKGRFTISRDNANNSLFLQMNSLTVEDTAVYYCAREATSGTYFDYWGQGTLVSVSS
VL: QAVVTQPASVSGSPGQSITISCTGTSSDVGGYNYVSWYQQHPGKAPKLMIYEVTNRPSGVSNRFSGSKSGNTASLTISGLQAEDEADYYCSSYTSSSTPYVFGTGTKVTVL
notes: Human antibody from a phage library; also called 110-HC/110-LC
As to B9, in the assay with LILRB2 [4], the “OD450 in ELISA assay” value stood at 0.972.

B10: NeuB2-93 (antibody, V domains shown)
VH: QVQLMQSGAEVKKPGSSVKVSCKASGGRFSSNVMSWVRQAPGQGLEWMGGIIPIFGTPKYAQKFQGRVTITADKSTSTAYMELSSLRSEDTAVYYCASGSTPFDAFDIWGQGTMVTVSS
VL: QPVLTQPASVSGSPGQSITISCTGTSSDVGGYNYVSWYQQHPGKAPKLMIYEVSNRPSGVSNRFSGSKSGNTASLTISGLQAEDEADYYCSSYTSSSTPWVFGGGTKVTVL
notes: also called Ab93; 93-HC/93-LC
Turning to B10, in assay [1], the EC50 was 159 pM. In addition, in the assay with LILRB2 [2], the Kd was 83900 pM, the off-rate (koff) came out at 0.0103 s⁻¹ and the association rate constant (kon) amounted to 123000 M⁻¹ s⁻¹. For the same molecule, in assay [3], the “IC50 (M); GFP signal” value was 3.81e-09 M. Further, the “OD450 in ELISA assay” value in the assay with LILRB2 [4] was 0.543. For the same molecule, the “IC50 (M); blocking” value in assay [5] is 4.45e-10 M.

B11: NeuB2-60 (antibody, V domains shown)
VH: QVQLQESGPGLVKPSGTLSLTCAVSGGSITSSNWWSWVRQPPGKGLEWIGDISHSGSTNYNPSLKGRVTMSVDRSKNQFFLKLSSVTAADTAMYYCARAFHGMDVWGQGTTVTVSS
VL: QSVLTQPPSVSEAPRQRVTISCSGSSSNIANNAVNWYQQLPGKAPKLLIYYDDLLASGVSDRFSGSRSGTSAALAISGLQSEDEADYYCATWDDDLNGPIFGGGTKVTVL
notes: also called Ab60; 60-HC/60-LC
Consider B11, for which, in assay [1], the EC50 amounted to 161 pM. In the assay with LILRB2 [2], the dissociation constant Kd turned out to be 24100 pM, the off-rate constant (koff) is 0.00512 s⁻¹ and the kon turned out to be 212000 M⁻¹ s⁻¹. Moreover, the “IC50 (M); GFP signal” value in assay [3] came to 9.82e-10 M. Besides, the “OD450 in ELISA assay” value with LILRB2 [4] was 0.744. In assay [5], the “IC50 (M); blocking” value was 3.21e-10 M.

B12: NeuB2-37 (antibody, V domains shown)
VH: QVQLMQSGAEVKKPGSSVKVSCKASGGTFSSYAISWVRQAPGQGLEWMGGIIPIFGTANYAQKFQGRVTITADESTSTAYMELSSLRSEDTAVYYCARGNHVLRFLEWLPNWFDPWGQGTLVTVSS
VL: not shown
notes: also called Ab37; 37-HC/37-LC
B12: the EC50 in assay [1] stood at 658 pM. In addition, in the assay with LILRB2 [2], the affinity, expressed as Kd, was 8450 pM; the off-rate (koff) is 0.0004 s⁻¹; the kon is 47400 M⁻¹ s⁻¹. Also, the “IC50 (M); GFP signal” value in assay [3] was found to be 8.62e-10 M. Further, the “OD450 in ELISA assay” value with LILRB2 [4] turned out to be 0.417. Moreover, the “IC50 (M); blocking” value in assay [5] was determined as 2.93e-10 M.

B13: NeuB2-9 (antibody, V domains shown)
VH: QVQLVQSGAEVKKPGASVKVSCKASGYTFTSYAMHWVRQAPGQRLEWMGWINAGNGNTKYSQKFQGRVTITRDTSASTAYMELSSLRSEDTAVYYCARDFMGYCSSTSCYGVTGAFDIWGQGTMVTVSS
VL: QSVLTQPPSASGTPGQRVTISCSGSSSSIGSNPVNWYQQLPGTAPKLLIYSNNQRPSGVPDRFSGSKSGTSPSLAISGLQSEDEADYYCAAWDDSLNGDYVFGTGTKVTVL
notes: Human antibody from a phage library; also called 9-HC/9-LC
B13: in the assay with LILRB2 [4], the “OD450 in ELISA assay” value came to 0.515.

In general, Kd refers to the concentration at which binding is half-saturated. In general, koff refers to a measure of how fast the partners let go of each other. A low value points to slow dissociation. What is called kon is the second-order rate constant of association. Lower therefore signals slow association.

These data come from US20240392001A1 (University of Texas, published 2024).
